Test [1] has as its target HLA-A0201 MHC class I molecule on T2 cells (human (endogenous in T2) | human). The test can be described thus: flow cytometry on cells; T2 cells treated with 1 uM biotinylated peptide for 16 hours, no UV; peptide on the cell surface stained with anti-biotin AlexaFluor 488 antibody. A general note: In flow cytometry, cells or beads pass a laser one at a time.
For test [2] the target is unchanged. The test can be described thus: flow cytometry on cells; internalization study (pulse-chase): T2 cells with 1 uM biotinylated peptide for 2 hr at 37 degrees, washed twice, incubated a further 4 or 22 hours; surface peptide by anti-biotin staining.
Test [3] shares this target. The test can be described thus: flow cytometry on cells; T2 cells treated with 1 uM biotinylated peptide for 16 hours, then exposed to UV light; peptide on the cell surface stained with anti-biotin AlexaFluor 488 antibody.
Test [4] has the same target. The test can be described thus: flow cytometry on cells; internalization study: T2 cells with 1 uM biotinylated peptide at 37 degrees, peptide left on; surface peptide by anti-biotin staining at 2, 6 and 24 h.

The text below walks through data of article PMC2592539.

Square brackets hold non-standard residues; d marks the D form. Side chains are listed from the residue outwards. Ends that are not written are not given here. * marks the point of attachment. Biotin = O=C1N[C@H]2[C@H](CS[C@H]2CCCCC(=O)*)N1; Bpa = N[C@@H](Cc1ccc(C(=O)c2ccccc2)cc1)C(=O)O; PEG linker = not defined here

For [Bpa]LGEQ([PEG linker-Biotin])QYSV (reading uncertain) [WT1B-S1Fbz-bio], the mean fluorescence (anti-biotin) in test [1] worked out at 41.5. For the same molecule, the mean fluorescence (anti-biotin) at 6 h, washed after 2 h in test [2] is 6.69. Moreover, the mean fluorescence (anti-biotin) in test [3] came out at 43.2. In test [4], this molecule yielded a mean fluorescence (anti-biotin) at 2 h of 8.74, a mean fluorescence (anti-biotin) at 6 h of 44.4 and a mean fluorescence (anti-biotin) at 24 h of 23.4.
